# Results from the RNAGym collection of RNA variant scans (doi:10.1073/pnas.2313332121).
# This sample holds only a part of the variants without activity.
# B1: TPR 5TU (parent)
# chain: GGAUCUUCUCGAUCUAACAAAAAAGACAAAUCUGCCACAAAGCUUGAGAGCAUCUUCGGAUGCAGAGGCGGCAGCCUUCGGUGGCGCGAUAGCGCCAACGUUCUCAACUAUGACACGCAAAACGCGUGCUCCGUUGAAUGGAGUUUAUCAUG
# Variants of: B1
# Experiment: polymerase ribozyme fitness, log enrichment relative to wild type (log ratio); higher = more active; in vitro selection for triplet polymerase activity
# Method in brief: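 The heterodimeric triplet polymerase ribozyme's subunits were each mutagenized into PCR-built libraries and transcribed. Every library was selected once, in triplicate, by annealing with a biotinylated primer, the partner subunit and triplets, incubating frozen at −7 °C, gel-excising extended constructs, capturing on streptavidin beads and running RT-PCR. Input and output libraries were Illumina-sequenced, with genotypes kept only at ≥10 input reads and ≥1 read per output. Fitness, from inverse-variance-weighted replicate averages, is the base-2 logarithm of genotype enrichment over wild-type enrichment.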
row,Variant,polymerase ribozyme fitness (log ratio)
1,C114G A119G,-2.84
2,G100A C129G,≤ -4.2
3,C96U A113U G124U,-2.41
4,A97U U109G,-1.62
5,A113G U148A,-4.05
6,C108U C132A U139A,≤ -4.2
7,C99U C125U,0.0952
8,C96U A107C,-3.14
9,C96U A107U,-3.35
10,U101C A150G,-1.59
11,A110G C129U U144C,≤ -4.2
12,C96G C105G,-1.92
13,C105U A142C,-0.229
14,U104C,0.352
15,U104A,0.0691
16,U104G,-0.299
17,A107U U145A,-2.78
18,A97U C116U,-0.695
19,C114U A119U,-1.73
20,C96G U109G G124C,-2.62
21,U102C U148C,-3.19

row,Variant,polymerase ribozyme fitness (log ratio)
1,A97U G141C U146G,-2.08
2,U101A G143C,-2.08
3,C108A G143U U144G,≤ -4.2
4,C114U,-1.75
5,C114A,-2.72
6,C114G,-2.54
7,U102G U104C U148A A150U,≤ -4.2
8,A97G U130G,-2.77
9,A98U U148A,-3.03
10,C96G C125G U130G C132A,≤ -4.2
11,C96G A122G U139G,0.0535
12,C96U C131U,0.576
13,C96U C131G,-2.66
14,A106C C114A G140C G141C,≤ -4.2
15,C96G G141C,-0.919
16,C108U A147C,-3.44
17,C96G A121C C129U,-0.0949
18,U104G U135C G143C,-3.79
19,C114U G140C A150C,≤ -4.2
20,A107G U127C A138C,≤ -4.2
21,A98G C132G G136C,-4.12

row,Variant,polymerase ribozyme fitness (log ratio)
1,U109G G133C,-2
2,C108U A115G,-3.94
3,C105G U127C U139G,-2.77
4,A98U A142U,-2.98
5,C99A C118G A119C,-0.582
6,C105A A113U,≤ -4.2
7,C108A G124U G140C,≤ -4.2
8,C105G U134C G140U,-4.18
9,U109G C116A,-2.26
10,U109G C116G,-0.501
11,C108G A122C,≤ -4.2
12,C96G A119U,-2.52
13,C103G A107G A142G,≤ -4.2
14,A110G A122G,-2.84
15,U102C A120U G140C,-3.56
16,U101G A113U,-1.25
17,C99G A121C U151A,≤ -4.2
18,C96U U101C A142C,-1.82
19,A106G U146A,-0.139
20,U109G C118G U144A,-3.88
21,A97G A107G,-4.13

row,Variant,polymerase ribozyme fitness (log ratio)
1,A107U A120G C132A A147C,≤ -4.2
2,A97G G141C,-1.86
3,C103G A138G,-3.66
4,A107U A115G,-4.16
5,C103A A142G,-2.71
6,G100U U139G U146G,≤ -4.2
7,U102C G136A,-0.705
8,C96U A115G G136U A142G,-3.69
9,C105G A107U U148C,≤ -4.2
10,A98U G141U,1.39
11,G100U C131U,≤ -4.2
12,A98U C129U,0.463
13,A98G U104G C118U,-0.702
14,C103G A119C,-1.49
15,C99G C118U U148A,≤ -4.2
16,A113U G124C,-3.17
17,A113U G124U,-2.07
18,C99G G117C A122G,-1.51
19,C96G G100U,-3.95
20,C96U A121G,0.324
